Data from IntAct's records for PubMed 11739401.

B1: Ras-related protein Rab-2A (Homo sapiens), P61019 (parent)
chain: MAYAYLFKYIIIGDTGVGKSCLLLQFTDKRFQPVHDLTIGVEFGARMITIDGKQIKLQIWDTAGQESFRSITRSYYRGAAGALLVYDITRRDTFNHLTTWLEDARQHSNSNMVIMLIGNKSDLESRREVKKEEGEAFAREHGLIFMETSAKTASNVEEAFINTAKEIYEKIQEGVFDINNEANGIKIGPQHAATNATHAGNQGGQQAGGGCC
partner: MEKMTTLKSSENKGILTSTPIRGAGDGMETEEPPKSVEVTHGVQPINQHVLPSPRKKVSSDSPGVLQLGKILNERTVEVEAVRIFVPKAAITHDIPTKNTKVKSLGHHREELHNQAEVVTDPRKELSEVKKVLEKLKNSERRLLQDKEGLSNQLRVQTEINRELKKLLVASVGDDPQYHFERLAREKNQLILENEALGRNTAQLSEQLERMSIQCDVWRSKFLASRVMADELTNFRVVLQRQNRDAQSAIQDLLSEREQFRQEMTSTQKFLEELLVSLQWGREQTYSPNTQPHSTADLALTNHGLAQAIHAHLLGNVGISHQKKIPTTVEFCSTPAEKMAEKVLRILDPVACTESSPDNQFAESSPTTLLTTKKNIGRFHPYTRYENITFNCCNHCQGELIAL

Variants of: B1
Settings: with go45_mouse Blzf1, Q8R2X8

Variant | effect of a mutation on the interaction
Q65L | increasing interaction
